Consider 37 molecules from patent US20230183291A1 (Bicycle, published 2023).

Numbered stars: 1 amine (or outer) side, 2 acyl side, 3 side chain; on linkers, the order of the positions; unused ones are H or OH. Bridge positions count the residues as written; N and C are the ends. Square brackets hold non-standard residues; d marks the D form. Ends that are not written are not given here. Hse(Me) = O-methyl-homoserine, COCC[C@H](N[*:1])C(=O)[*:2]; TATA = O=C(CC[*:1])N1CN(C(=O)CC[*:2])CN(C(=O)CC[*:3])C1; Phe(3-Cl) = N[C@@H](Cc1cccc(Cl)c1)C(=O)O; Phe(2-Cl) = N[C@@H](Cc1ccccc1Cl)C(=O)O; Phe(3-F) = N[C@@H](Cc1cccc(F)c1)C(=O)O; Phe(3-Me) = Cc1cccc(C[C@H](N)C(=O)O)c1; Phe(4-Me) = Cc1ccc(C[C@H](N)C(=O)O)cc1; Phe(2-F) = N[C@@H](Cc1ccccc1F)C(=O)O; Phe(2-Me) = Cc1ccccc1C[C@H](N)C(=O)O; Hyp = O=C(O)[C@@H]1C[C@@H](O)CN1; hArg = N=C(N)NCCCC[C@H](N)C(=O)O; tBuAla = CC(C)(C)C[C@H](N)C(=O)O; Agb = N=C(N)NCC[C@H](N)C(=O)O; PYA = propargyl-acid

To fix the notation:
B1: BCY18210 (peptide)
peptide: Ac-CN[Hyp]VLCSWA[hArg]ANSFC
modifications: linker 1-6-15 via TATA
notes: bicyclic peptide, TATA scaffold
B2: BCY18349 (peptide)
peptide: Ac-CNRVLCAWATANS[Hse(Me)]CK(PYA)
modifications: linker 1-6-15 via TATA
notes: as for B1
B3: BCY17154 (peptide)
peptide: ACESLYKCWRGRCA
modifications: linker 2-8-13 via TATA
notes: as for B1
B4: BCY17165 (peptide)
peptide: ACSPVLCAWATRNSLCA
modifications: linker 2-7-16 via TATA
notes: as for B1
B5: BCY17156 (peptide)
peptide: ACTELYKCWRGRCA
modifications: linker 2-8-13 via TATA
notes: as for B1
B6: BCY17691 (peptide)
peptide: Ac-ACNAVLCSWARANSFCA
modifications: linker 2-7-16 via TATA
notes: as for B1
B7: BCY17153 (peptide)
peptide: ACDTLYKCWRGRCA
modifications: linker 2-8-13 via TATA
notes: as for B1
B8: BCY17689 (peptide)
peptide: ACNAVLCSWA[Agb]ANSFCA
modifications: linker 2-7-16 via TATA
notes: as for B1
B9: BCY17157 (peptide)
peptide: ACNKVLCSWASRNSMCA
modifications: linker 2-7-16 via TATA
notes: as for B1
B10: BCY17155 (peptide)
peptide: ACNTLYKCWRGKCA
modifications: linker 2-8-13 via TATA
notes: as for B1
B11: BCY17338 (peptide)
peptide: ACNAVLCSWARANS[Phe(2-Cl)]CA
modifications: linker 2-7-16 via TATA
notes: as for B1
B12: BCY18350 (peptide)
peptide: Ac-CN[hArg]VLCSWA[hArg]ANSFC
modifications: linker 1-6-15 via TATA
notes: as for B1
B13: BCY17339 (peptide)
peptide: ACNAVLCSWARANS[Phe(3-Cl)]CA
modifications: linker 2-7-16 via TATA
notes: as for B1
B14: BCY17333 (peptide)
peptide: ACNAV[tBuAla]CSWARANSFCA
modifications: linker 2-7-16 via TATA
notes: as for B1
B15: BCY17342 (peptide)
peptide: ACNAVLCSWARANS[Phe(3-F)]CA
modifications: linker 2-7-16 via TATA
notes: as for B1
B16: BCY17336 (peptide)
peptide: ACNAVLCSWARANS[Phe(3-Me)]CA
modifications: linker 2-7-16 via TATA
notes: as for B1
B17: BCY17337 (peptide)
peptide: ACNAVLCSWARANS[Phe(4-Me)]CA
modifications: linker 2-7-16 via TATA
notes: as for B1
B18: BCY17163 (peptide)
peptide: ACNTVLCAWAMNNSMCA
modifications: linker 2-7-16 via TATA
notes: as for B1
B19: BCY17164 (peptide)
peptide: ACNTVLCAWATQNSLCA
modifications: linker 2-7-16 via TATA
notes: as for B1
B20: BCY17161 (peptide)
peptide: ACNTVLCAWARANSYCA
modifications: linker 2-7-16 via TATA
notes: as for B1
B21: BCY17159 (peptide)
peptide: ACNRVLCAWATANSMCA
modifications: linker 2-7-16 via TATA
notes: as for B1
B22: BCY17663 (peptide)
peptide: Ac-CNAVLCSWARANSFC
modifications: linker 1-6-15 via TATA
notes: as for B1
B23: BCY17158 (peptide)
peptide: ACNQVLCRWAQVNSMCA
modifications: linker 2-7-16 via TATA
notes: as for B1
B24: BCY17335 (peptide)
peptide: ACNAVLCSWARANS[Phe(2-Me)]CA
modifications: linker 2-7-16 via TATA
notes: as for B1
B25: BCY17162 (peptide)
peptide: ACNTVLCGWARANSLCA
modifications: linker 2-7-16 via TATA
notes: as for B1
B26: BCY17688 (peptide)
peptide: CNAVLCSWARANSFC
modifications: linker 1-6-15 via TATA
notes: bicyclic peptide without terminal additions
B27: BCY18657 (peptide)
peptide: Ac-CNTVLCSWA[hArg]ANSFC
modifications: linker 1-6-15 via TATA
notes: as for B1
B28: BCY18658 (peptide)
peptide: Ac-CNSVLCSWA[hArg]ANSFC
modifications: linker 1-6-15 via TATA
notes: as for B1
B29: BCY15429 (peptide)
peptide: ACNAVLCSWARANSFCA
modifications: linker 2-7-16 via TATA
notes: as for B1
B30: BCY17690 (peptide)
peptide: ACNAVLCSWARANSYCA
modifications: linker 2-7-16 via TATA
notes: as for B1
B31: BCY17341 (peptide)
peptide: ACNAVLCSWARANS[Phe(2-F)]CA
modifications: linker 2-7-16 via TATA
notes: as for B1
B32: BCY17160 (peptide)
peptide: ACNTVLCNWARYNSLCA
modifications: linker 2-7-16 via TATA
notes: as for B1
B33: BCY15427 (peptide)
peptide: ACPSQYKCWRGKCA
modifications: linker 2-8-13 via TATA
notes: as for B1
B34: BCY17152 (peptide)
peptide: ACAEIYKCWRGRCA
modifications: linker 2-8-13 via TATA
notes: as for B1
B35: BCY18784 (peptide)
peptide: Ac-CNAVLCSWA[hArg]ANSFCK(PYA)
modifications: linker 1-6-15 via TATA
notes: as for B1
B36: BCY19025 (peptide)
peptide: Ac-CNAVLCSWA[hArg]TNSFC
modifications: linker 1-6-15 via TATA
notes: as for B1
B37: BCY19026 (peptide)
peptide: Ac-CNAVLCSWA[hArg]SNSFC
modifications: linker 1-6-15 via TATA
notes: as for B1

The first experiment deals with T1, Biotinylated Human ACE2, His, Avitag protein (ACROBiosystems, AC2-H82E6) (human, UniProt Q9BYF1 18-740).
T1 construct: also called biotinylated ACE2; ACE2 protein; not shown: His tag and Avitag
T1 sequence (Q9BYF1 18-740 limits assumed): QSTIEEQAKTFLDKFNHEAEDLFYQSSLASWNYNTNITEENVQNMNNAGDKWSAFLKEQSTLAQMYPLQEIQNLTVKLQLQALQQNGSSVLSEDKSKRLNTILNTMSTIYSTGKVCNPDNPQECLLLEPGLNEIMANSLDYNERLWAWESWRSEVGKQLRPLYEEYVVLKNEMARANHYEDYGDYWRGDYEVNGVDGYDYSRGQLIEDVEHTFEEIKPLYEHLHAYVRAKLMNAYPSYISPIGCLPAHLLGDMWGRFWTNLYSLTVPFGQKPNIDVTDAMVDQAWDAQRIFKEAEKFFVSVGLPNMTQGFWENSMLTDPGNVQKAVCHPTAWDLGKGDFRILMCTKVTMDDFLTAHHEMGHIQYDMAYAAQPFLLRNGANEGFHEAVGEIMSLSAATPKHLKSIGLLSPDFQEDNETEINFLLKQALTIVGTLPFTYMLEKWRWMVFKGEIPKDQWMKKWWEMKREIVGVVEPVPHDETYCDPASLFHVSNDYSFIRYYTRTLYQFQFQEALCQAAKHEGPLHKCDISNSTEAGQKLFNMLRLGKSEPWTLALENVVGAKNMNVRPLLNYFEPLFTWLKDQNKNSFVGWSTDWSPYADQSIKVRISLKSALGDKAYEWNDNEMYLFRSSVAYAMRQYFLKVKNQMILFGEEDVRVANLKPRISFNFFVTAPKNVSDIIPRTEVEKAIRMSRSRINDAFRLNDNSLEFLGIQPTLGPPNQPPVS
The experiment in a line: SPR single cycle kinetics, ACE2 captured on CAP chip, peptide analyte; geometric mean; * Rmax set to 10. Here is the method:
(§1) Binding of bicyclic peptides of the invention to Biotinylated Human ACE2, His, Avitag™ protein (ACROBiosystems, AC2-H82E6) was assessed by a SCK analysis. Experiments were performed at 25° C. on a Biacore T200 (Cytiva) running Biacore T200 Control software V2.0.1 and Evaluation software V3.0 (Cytiva). HBS-EP+ (Cytiva) was used as running buffer as well as for ligand and analyte dilutions. Biotin CAPture reagent was loaded onto a Series S Sensor CAP Chip (Cytiva) followed by loading of the ACE2 protein at a flow rate of 2 μl/min. The surface was then allowed to stabilise.
(§2) SCK data was obtained using bicyclic peptides of the invention as analytes injected at a flow rate of 30 μl/min to minimise any potential mass transfer effects. […] The association phases were monitored for 100 seconds for each of the four injections of increasing concentrations of analyte and a single dissociation phase was measured for 400 seconds following the last injection of analyte. Regeneration of the sensor chip surface was conducted using the CAP Chip standard regeneration buffer (Cytiva).
(§3) The signal from the reference channel Fc1 (no ACE2 captured) was subtracted from that of Fc2, Fc3 and Fc4 to correct for bulk effect and differences in non-specific binding to a reference surface. The signal from each blank run (Fc2-ACE2 captured but no antigen) was subtracted to correct for differences in surface stability. The double referenced sensorgrams were fitted with the Langmuir (1:1) binding model (Equation 1a below) where the closeness of fit of the data to the model is evaluated using the Chi square value which describes the deviation between the experimental and fitted (observed and expected) curves (Equation 1b below).
The molecule B1 displayed a Kd of 21.1 nM.

B2 showed a Kd of 59.6 nM.

The target of the next experiment is T1, Biotinylated Human ACE2, His, Avitag …. The experiment in a line: SPR single cycle kinetics, ACE2 captured on CAP chip, peptide analyte; geometric mean. Here is the method:
as §1, §2, §3
In turn, B3 gave a Kd of 104 nM.

The molecule B4 showed a Kd of 12.5 nM.

For B5, the affinity, expressed as Kd, was 151 nM.

On to B6, for which the Kd worked out at 3.9 nM.

As to B7, the Kd was 91.7 nM.

B8 displayed a Kd of 4.7 nM.

As to B9, the Kd was found to be 11.8 nM.

As to B10, the Kd came out at 107 nM.

Molecule B11 came in with a Kd of 3.2 nM.

Molecule B12 had a Kd of 8.3 nM.

Consider B13, for which the affinity, expressed as Kd, was 4.7 nM.

With B14, the Kd came to 5 nM.

Molecule B15 showed a Kd of 3.3 nM.

Take B16: the Kd was 8.3 nM.

As for B17, the affinity, expressed as Kd, was 5 nM.

For B18, the Kd was found to be 36.8 nM.

In turn, B19 came in with a Kd of 14.8 nM.

B20 registered a Kd of 4.2 nM.

In turn, B21 registered an equilibrium dissociation constant (Kd) of 4.7 nM.

B22: the Kd was determined as 5.3 nM.

In the case of B23, the affinity, expressed as Kd, was 4 nM.

B24 had a dissociation constant (Kd) of 2.5 nM.

B25 showed a Kd of 5.7 nM.

B26 had a Kd of 2.7 nM.

B27: the Kd came to 69.3 nM.

As to B28, the equilibrium dissociation constant (Kd) was 6.7 nM.

Molecule B29 displayed a Kd of 3.4 nM.

In the case of B30, binding was characterised by a dissociation constant (Kd) of 4.8 nM.

Molecule B31 came in with a Kd of 3.1 nM.

In the case of B32, the dissociation constant (Kd) worked out at 4.2 nM.

B33 gave a Kd of 150 nM.

B34 registered a Kd of 120 nM.

With B35, the Kd was 25.3 nM.

Another experiment has the same target. The experiment in a line: SPR multiple cycle kinetics, ACE2 captured on CAP chip, peptide analyte 6.25-100 nM; geometric mean. How it is done: Binding of bicyclic peptides of the invention to Biotinylated Human ACE2, His, Avitag™ protein (ACROBiosystems, AC2-H82E6) was assessed by a MCK analysis. Experiments were performed at 25° C. on a Biacore T200 (Cytiva) running Biacore T200 Control software V2.0.1 and Evaluation software V3.0 (Cytiva). HBS-EP+(Cytiva) was used as running buffer as well as for ligand and analyte dilutions. Biotin CAPture reagent was loaded onto a Series S Sensor CAP Chip (Cytiva) followed by loading of biotinylated ACE2 at a flow rate of 2 μl/min. The surface was then allowed to stabilise.
MCK data was obtained using bicyclic peptides of the invention as analytes injected at a flow rate of 30 μl/min to minimise any potential mass transfer effects. A five point, two-fold dilution range from 6.25 nM to 100 nM of analyte was prepared in running buffer. For each concentration, the association phases were monitored for 250 seconds and the dissociation phase was measured for 450 seconds. Regeneration of the sensor chip surface was conducted between cycles using the CAP Chip standard regeneration buffer (Cytiva). Multiple repeats of a blank and of Bicycle were programmed into the kinetic run in order to check the stability of both the surface and analyte over the kinetic cycles.
as §3, with “above)” for “below)”, “1 b above).” for “1b below).”
Molecule B1 returned a Kd of 10.6 nM.

Take B20: the affinity, expressed as Kd, was 4.4 nM.

Regarding B23, the Kd was 8.1 nM.

Take B25: the Kd was 11.4 nM.

For B28, binding was put at a Kd of 13.5 nM.

For B36, binding was put at a Kd of 70.7 nM.

Take B37: the Kd came to 45.2 nM.

B29: binding was put at a Kd of 4 nM.

In turn, B32 had a dissociation constant Kd of 4.8 nM.

A word on the Kd: it is the constant that tells how readily two partners part at equilibrium. A higher Kd goes with a looser complex.
